Results on 2 molecules are retold here after patent publication US20230220047A1 (NORWEGIAN UNIVERSITY OF SCIENCE AND TECHNOLOGY NTNU, published 2023).

Ends that are not written are not given here.

In experiment [1] the target is T1, IRAK2 (endogenous, human) (human, UniProt O43187 1-625).
T1 sequence (looked up): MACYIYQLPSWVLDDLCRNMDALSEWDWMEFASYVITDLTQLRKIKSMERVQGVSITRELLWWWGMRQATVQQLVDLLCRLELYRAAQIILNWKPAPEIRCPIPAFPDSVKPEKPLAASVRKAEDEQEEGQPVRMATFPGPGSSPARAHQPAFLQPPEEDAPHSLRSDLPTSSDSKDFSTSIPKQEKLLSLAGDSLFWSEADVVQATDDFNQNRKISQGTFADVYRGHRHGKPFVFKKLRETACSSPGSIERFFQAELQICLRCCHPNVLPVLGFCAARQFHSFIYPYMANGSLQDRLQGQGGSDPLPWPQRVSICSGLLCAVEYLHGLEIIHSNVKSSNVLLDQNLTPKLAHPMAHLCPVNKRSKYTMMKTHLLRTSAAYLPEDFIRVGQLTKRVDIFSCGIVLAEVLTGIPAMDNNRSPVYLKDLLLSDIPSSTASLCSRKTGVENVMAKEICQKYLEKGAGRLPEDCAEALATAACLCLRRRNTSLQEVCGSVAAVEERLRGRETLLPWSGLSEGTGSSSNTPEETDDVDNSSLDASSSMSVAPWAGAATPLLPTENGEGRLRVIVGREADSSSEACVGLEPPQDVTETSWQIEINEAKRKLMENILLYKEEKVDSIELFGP
The experiment is described as follows: endogenous co-precipitation with anti-SLAMF1 mAb (E-11) on magnetic beads from primary human macrophages, Western blot. The procedure:
The SLAMF1 and TRAM interaction was used as a positive control. Primary human macrophages were pre-treated with 15 μM peptides for 30 min, stimulated with LPS for another 15′, 30′ or 1 h, lysed and used for co-precipitation with anti-SLAMF1 mouse mAbs (E-11) covalently bound to magnetic beads, followed by Western blot analysis. Proteins in lysates were analysed as input control.
Indeed, a potential P7-Pen interaction motif is located within the protein kinase domain of IRAK4. Alignment of IRAKs with the TRAM-derived sequence that is targeted by the peptide identified sequences in IRAK1 and IRAK4 that are highly similar to the P7-interacting motif in TRAM/TICAM2 (not shown). […] IRAK4 also co-precipitated with GST-SLAMF1ct in GST pull down assays from lysates of primary human macrophages (data not shown).

For experiment [2], the target named is T2, human TRAM (endogenous in primary human macrophages, or overexpressed in HEK 293T cells) (human, UniProt Q86XR7 2-235, limits assumed).
T2 construct: also called TICAM2
As to the kind of experiment: C-terminally biotinylated peptide on Neutravidin agarose, lysates of HEK 293T cells overexpressing TRAM. How it is done: (§1) Immunoprecipitations with the biotinylated peptides Penetratin-biotin and Pep7-Penetratin-biotin (synthesised by custom order by GenScript) were performed by coating NeutrAvidin® Agarose Resin (Thermo Scientific) with peptide by incubating 40 μl 50% agarose slurry with 10 μl 2 mM peptides in 300 μl lysis buffer (for one precipitation reaction) (300 mM NaCl, 50 mM TrisHCl (pH 8.0), 1 mM EDTA, 1% Triton X100). Beads were washed 3 times with lysis buffer to remove unbound peptides before applying cellular extracts. Cell lysis was performed in the same lysis buffer, both for HEK293T cells and primary human macrophages. Precipitations were carried out by rotation at 4° C. for 30′-1 h, followed by four washes with lysis buffer. Agarose resin with precipitated protein complexes was heated in loading buffer 1×NuPAGE® LDS Sample Buffer (Thermo Fisher Scientific) containing 20 mM DTT and analysed by Western blotting.
(§2) Murine disease models are the most accessible and widely used pre-clinical model for testing new drugs. […] To test the potential interaction of the P7 peptide with murine TRAM vs. human TRAM protein, we performed precipitations of C-terminally biotinylated Pen or P7-Pen peptides.

Experiment [3] concerns the target murine TRAM protein (overexpressed in HEK 293T cells) (murine, UniProt Q8BJQ4 2-232, limits assumed). Described as above. The procedure:
as §1, §2

The target in experiment [4] is T3, TRAF6 (endogenous, human) (human, UniProt Q9Y4K3 1-522).
T3 sequence (looked up): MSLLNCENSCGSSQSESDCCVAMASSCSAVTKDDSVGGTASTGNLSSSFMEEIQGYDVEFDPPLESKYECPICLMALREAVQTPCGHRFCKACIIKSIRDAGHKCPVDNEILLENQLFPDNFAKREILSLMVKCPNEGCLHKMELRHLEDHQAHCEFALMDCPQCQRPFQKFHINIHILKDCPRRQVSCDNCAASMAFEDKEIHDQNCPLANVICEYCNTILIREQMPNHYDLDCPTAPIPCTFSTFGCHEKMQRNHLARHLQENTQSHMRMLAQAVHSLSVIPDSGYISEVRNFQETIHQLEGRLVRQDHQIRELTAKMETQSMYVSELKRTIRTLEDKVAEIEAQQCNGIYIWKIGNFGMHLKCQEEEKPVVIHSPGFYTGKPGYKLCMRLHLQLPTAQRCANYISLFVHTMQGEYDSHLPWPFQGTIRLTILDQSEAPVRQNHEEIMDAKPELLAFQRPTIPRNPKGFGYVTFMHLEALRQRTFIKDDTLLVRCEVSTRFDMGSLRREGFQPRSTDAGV
As to the kind of experiment: biotinylated peptide on NeutrAvidin beads, lysates of LPS-stimulated primary human macrophages, Western blot; within a complex. How it is done: (§3) Precipitations were performed using biotinylated peptides on lysates of primary human macrophages stimulated with LPS (100 ng/ml) for 15, 30 or 60 min and unstimulated cells (A), and stimulated with LPS for 30 or 60 min, or CL075/TLR8 ligand for 15 or 30 min (B).
as §1, with “blotting. […]” for “blotting.”

Experiment [5] deals with T4, MyD88 (endogenous, human) (human, UniProt Q99836 1-296).
T4 construct: also called Myeloid Differentiation primary response protein 88
The experiment is described as follows: biotinylated peptide on NeutrAvidin beads, lysates of primary human macrophages, Western blot; may be indirect, within a complex. How it is done:
as §3, §1
(§4) To look for interactions between P7 and proteins in the Myddosome complex, biotinylated P7 peptides were pre-incubated with lysates of primary human macrophages (unstimulated and stimulated by LPS or CL075) and NeutrAvidin beads, followed by Western blot analysis of precipitates (FIG. 26). […] Upon stimulation with LPS, the complex of P7-interacting proteins attracted TRAF6 and TAK1 (FIG. 26A).
(A western blot detects proteins with antibodies after separation by electrophoresis.)

Experiment [6] concerns the target T5, IRAK1 (endogenous, human) (human, UniProt P51617 1-712, limits assumed).
T5 construct: SLAMF1 co-precipitated the ubiquitinated/phosphorylated form after LPS stimulation; also called interleukin 1 receptor-associated kinase 1; modified IRAK1
Described as above. The procedure: as §3, §1, §4

The target of experiment [7] is T6, IRAK4 (endogenous, human) (human, UniProt Q9NWZ3 1-460).
T6 construct: also called interleukin 1 receptor-associated kinase 4
T6 sequence (looked up): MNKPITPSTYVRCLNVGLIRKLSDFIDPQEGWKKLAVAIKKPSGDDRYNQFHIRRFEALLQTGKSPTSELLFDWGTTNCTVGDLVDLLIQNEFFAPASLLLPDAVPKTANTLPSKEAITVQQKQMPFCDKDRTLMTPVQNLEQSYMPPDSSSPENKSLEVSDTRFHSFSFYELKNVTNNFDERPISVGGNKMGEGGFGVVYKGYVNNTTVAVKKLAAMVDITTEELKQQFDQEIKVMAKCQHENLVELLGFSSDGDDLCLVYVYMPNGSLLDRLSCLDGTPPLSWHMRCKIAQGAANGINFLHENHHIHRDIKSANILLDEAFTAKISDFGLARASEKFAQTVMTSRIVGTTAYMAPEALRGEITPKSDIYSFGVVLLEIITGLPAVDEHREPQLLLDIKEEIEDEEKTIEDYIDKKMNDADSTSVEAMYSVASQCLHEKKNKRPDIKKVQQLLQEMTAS
Described as above. How it is done: as §3, §1, §4

Experiment [8] has as its target T7, Mal (endogenous, human) (human, UniProt P58753 1-221, limits assumed).
T7 construct: also called Mal/TIRAP; MyD88-adaptor-like protein
The experiment is described as above. How it is done: as §3, §1, §4

Chain of murine TRAM protein (overexpressed in HEK 293T cells) (Q8BJQ4 2-232 limits assumed): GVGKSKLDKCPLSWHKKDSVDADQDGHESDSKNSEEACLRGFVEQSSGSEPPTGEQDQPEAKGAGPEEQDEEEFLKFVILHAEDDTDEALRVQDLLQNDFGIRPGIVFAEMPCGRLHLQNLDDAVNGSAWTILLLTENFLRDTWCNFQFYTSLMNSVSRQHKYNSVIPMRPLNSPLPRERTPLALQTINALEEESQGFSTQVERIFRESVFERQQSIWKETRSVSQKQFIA
T5 sequence (P51617 whole entry): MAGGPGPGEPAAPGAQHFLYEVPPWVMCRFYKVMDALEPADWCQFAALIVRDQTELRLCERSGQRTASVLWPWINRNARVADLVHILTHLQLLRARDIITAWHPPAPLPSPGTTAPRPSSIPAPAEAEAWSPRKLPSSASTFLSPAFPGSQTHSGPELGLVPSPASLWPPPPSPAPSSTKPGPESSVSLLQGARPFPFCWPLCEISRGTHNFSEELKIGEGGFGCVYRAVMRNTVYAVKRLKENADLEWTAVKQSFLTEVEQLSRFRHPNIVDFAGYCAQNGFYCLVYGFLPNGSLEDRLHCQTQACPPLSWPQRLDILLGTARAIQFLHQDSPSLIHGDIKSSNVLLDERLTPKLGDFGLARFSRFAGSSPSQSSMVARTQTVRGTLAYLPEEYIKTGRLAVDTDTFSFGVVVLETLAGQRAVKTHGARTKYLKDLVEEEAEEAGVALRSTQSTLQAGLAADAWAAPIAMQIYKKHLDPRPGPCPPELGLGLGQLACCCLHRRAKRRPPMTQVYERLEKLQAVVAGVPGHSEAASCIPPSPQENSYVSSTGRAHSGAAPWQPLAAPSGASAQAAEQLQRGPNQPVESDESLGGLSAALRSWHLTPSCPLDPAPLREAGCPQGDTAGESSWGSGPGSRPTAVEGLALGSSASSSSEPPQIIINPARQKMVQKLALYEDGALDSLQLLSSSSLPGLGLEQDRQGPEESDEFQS
T4 sequence (Q99836 whole entry): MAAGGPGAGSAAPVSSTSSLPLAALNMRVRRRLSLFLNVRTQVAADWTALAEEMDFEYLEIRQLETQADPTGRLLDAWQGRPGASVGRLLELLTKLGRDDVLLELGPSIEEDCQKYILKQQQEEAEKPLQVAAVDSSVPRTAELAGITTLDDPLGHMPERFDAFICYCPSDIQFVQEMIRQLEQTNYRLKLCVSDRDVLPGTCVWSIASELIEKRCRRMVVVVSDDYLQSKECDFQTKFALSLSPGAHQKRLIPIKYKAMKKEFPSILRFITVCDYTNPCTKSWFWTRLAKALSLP
T2 sequence (Q86XR7 2-235 limits assumed): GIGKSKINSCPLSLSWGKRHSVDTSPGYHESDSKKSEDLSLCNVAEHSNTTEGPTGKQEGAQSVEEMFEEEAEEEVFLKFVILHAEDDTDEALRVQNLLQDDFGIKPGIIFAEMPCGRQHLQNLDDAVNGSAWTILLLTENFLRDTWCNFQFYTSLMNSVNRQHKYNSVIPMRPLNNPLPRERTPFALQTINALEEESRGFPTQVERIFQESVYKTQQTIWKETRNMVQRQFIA
T7 sequence (P58753 whole entry): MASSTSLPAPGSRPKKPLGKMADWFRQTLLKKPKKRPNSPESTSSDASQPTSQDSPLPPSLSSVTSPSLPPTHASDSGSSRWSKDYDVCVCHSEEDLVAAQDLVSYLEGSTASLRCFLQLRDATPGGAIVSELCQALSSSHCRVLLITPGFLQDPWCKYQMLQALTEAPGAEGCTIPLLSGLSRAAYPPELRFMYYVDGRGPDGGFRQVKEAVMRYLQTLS

B1: SLAMF1 (human, no tag stated; overexpressed in HEK293T cells or endogenous in primary human macrophages) (receptor, UniProt Q13291 21-335, looked up)
chain: ASYGTGGRMMNCPKILRQLGSKVLLPLTYERINKSMNKSIHIVVTMAKSLENSVENKIVSLDPSEAGPPRYLGDRYKFYLENLTLGIRESRKEDEGWYLMTLEKNVSVQRFCLQLRLYEQVSTPEIKVLNKTQENGTCTLILGCTVEKGDHVAYSWSEKAGTHPLNPANSSHLLSLTLGPQHADNIYICTVSNPISNNSQTFSPWPGCRTDPSETKPWAVYAGLLGGVIMILIMVVILQLRRRGKTNHYQTTVEKKSLTIYAQVQKPGPLQKKLDSFPAQDPCTTIYVAATEPVPESVQETNSITVYASVTLPES
notes: Used for SLAMF1 in the TRAM^Flag and Mal^Flag co-precipitations (no tag stated there) and for endogenous SLAMF1 precipitated with anti-SLAMF1 mAb E-11; also called SLAMF1 wt; SLAMF1 protein
B1: in experiment [1], the binding result is recorded as “no binding”.

B2: Pep7-Penetratin-biotin (C-terminally biotinylated P7-Pen) (peptide)
peptide: ITVYASVTLTGRQIKIWFQNRRMKWKK-biotin
modifications: not fully specified (N-terminus); also: biotin attachment not given here
notes: Custom synthesis by GenScript; immobilised on NeutrAvidin agarose; also called P7-Pen peptide; biotinylated P7 peptides
As for B2, the binding result in experiment [2], in experiment [3], in experiment [4], in experiment [5], in experiment [6] and in experiment [7] was “binds” throughout. The binding result in experiment [8] is listed as “binds”.
